Columns and labels:
[1] = target: T1, recombinant human IL-26/AK155 monomer, Cat #1375-IL/CF, R&D Systems (human, UniProt Q9NPH9 22-171); test: ELISA, human IL-26 monomer coated at 0.5 µg/ml, antibody diluted 2-fold from 5 µg/ml, HRP anti-mouse kappa detection
T1 construct: also called recombinant human IL-26 monomer
T1 sequence (looked up): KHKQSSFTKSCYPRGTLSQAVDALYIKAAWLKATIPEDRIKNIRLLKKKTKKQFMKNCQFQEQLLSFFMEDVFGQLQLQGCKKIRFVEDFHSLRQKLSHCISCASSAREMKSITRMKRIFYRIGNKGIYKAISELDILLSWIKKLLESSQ
Experimental: The antigen binding of purified Ch69-10-IgG1, Hu69-10A-IgG1, and Hu69-10B-IgG1 was analyzed by ELISA. ELISA plates were coated overnight at 4° C. with the addition of 0.5 μg/ml human IL-26 (recombinant human IL-26/AK155 monomer, Cat #1375-IL/CF, R&D Systems, Minneapolis, MN) at 100 μl/well in 0.2 M sodium carbonate buffer (pH 9.4). Wells were washed with the wash buffer and blocked with the ELISA buffer. Subsequently, 100 μl/well of test antibody (mouse 69-10, Ch69-10-IgG1, Hu69-10A-IgG1, or Hu69-10B-IgG1) serially diluted 2-fold in RPMI medium starting at 5 μg/ml was added to measure a binding with IL-26. After incubation at room temperature for 1 hour and washing the plates with a wash buffer, a 1/2,000-diluted HRP-conjugated goat anti-human kappa chain polyclonal antibody (Bethyl Laboratories) (for Ch69-10-IgG1, Hu69-10A-IgG1 and Hu69-10B-IgG1) or a 1/2,000-diluted HRP-labeled goat anti-mouse kappa chain polyclonal antibody (Bethyl Laboratories) (for mouse 69-10) in ELISA buffer was added at 100 μl/well to detect bound antibodies. After incubation at room temperature for 30 min and washing with the wash buffer, 100 μl/well of ABTS substrate (Sigma Aldrich) was added to start color development and 100 μl/well of 2% oxalic acid was added to stop the color development. The absorbance was measured at 405 nm.

[2] = target: T2, human EphA3 on the surface of HCC70 cells (human, UniProt P29320 21-983); test: immunofluorescence colocalization on HCC70 cells (FIG. 21)
T2 construct: whole, on cells; Endogenous receptor on HCC70 cells; also called cell surface EphA3; EphA3 receptor
T2 sequence (looked up): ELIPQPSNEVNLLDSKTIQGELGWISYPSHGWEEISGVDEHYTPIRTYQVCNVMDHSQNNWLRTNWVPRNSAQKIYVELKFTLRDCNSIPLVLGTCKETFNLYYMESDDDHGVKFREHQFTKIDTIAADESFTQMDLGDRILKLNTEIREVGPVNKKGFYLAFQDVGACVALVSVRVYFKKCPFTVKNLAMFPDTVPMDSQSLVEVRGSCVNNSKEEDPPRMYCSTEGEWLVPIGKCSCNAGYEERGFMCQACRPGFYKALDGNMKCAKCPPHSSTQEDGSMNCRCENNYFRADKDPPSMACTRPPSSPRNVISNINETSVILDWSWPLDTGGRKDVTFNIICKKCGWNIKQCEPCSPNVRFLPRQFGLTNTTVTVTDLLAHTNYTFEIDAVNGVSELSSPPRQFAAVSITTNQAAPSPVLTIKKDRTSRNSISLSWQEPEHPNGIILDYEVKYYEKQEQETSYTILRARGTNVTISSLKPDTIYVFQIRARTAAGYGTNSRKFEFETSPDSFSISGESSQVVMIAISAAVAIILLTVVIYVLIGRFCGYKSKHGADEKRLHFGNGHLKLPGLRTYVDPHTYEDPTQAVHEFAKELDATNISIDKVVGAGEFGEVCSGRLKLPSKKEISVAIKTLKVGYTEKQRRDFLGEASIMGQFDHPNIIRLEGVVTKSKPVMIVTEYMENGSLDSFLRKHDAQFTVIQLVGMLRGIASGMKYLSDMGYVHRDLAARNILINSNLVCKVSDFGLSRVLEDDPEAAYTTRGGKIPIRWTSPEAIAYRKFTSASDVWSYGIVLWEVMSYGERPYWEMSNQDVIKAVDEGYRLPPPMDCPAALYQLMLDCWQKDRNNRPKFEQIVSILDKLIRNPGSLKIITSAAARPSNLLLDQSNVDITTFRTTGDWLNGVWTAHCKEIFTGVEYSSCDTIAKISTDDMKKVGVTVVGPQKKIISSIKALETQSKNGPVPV
Experimental: IL-26 merged with EphA3 on the cell surface. […] Original magnification 200×. Scale bar=20 μm. Representative images of three independent experiments with similar results are shown.
(§1) E0771 and HCC70 cells (1×10⁵) were cultured for 24 hours in RPMI1640 medium with 10% FCS on Lab-Tek chamber slides (Thermo Fisher Scientific). The cultured cells were stimulated with Alexa Fluor 488 labeled IL-26 (30 ng/ml) in the presence or absence of recombinant human and mouse EphA3-Ig for 1 hour. HCC70 cells were stimulated with IL-26 (30 ng/ml) in the presence or absence of gefitinib (40 μM), a signal inhibitor, and a neutralizing antibody for 24 hours. Subcutaneous tumor samples obtained from mice were fixed in 4% paraformaldehyde (Thermo Fisher Scientific) and embedded in OCT compound (Tissue-Tek (registered trademark), Sakura Finetek, Japan). Cells and slides were immunostained with each antibody and observed using a Zeiss inverted microscope and Axiovision 2.0 program (Carl Zeiss, Germany). The fluorescence intensity was quantified with Image-J software (NIH). The images were captured using a 100×400× objective.

[3] = target: T3, mouse EphA3 on the surface of E0771 cells (mouse, UniProt P29319 21-983); test: 2.5D fluorescence intensity plot of stained E0771 cells (FIG. 18)
T3 construct: whole, on cells; Endogenous receptor on E0771 cells; also called cell surface EphA3; EphA3 receptor
T3 sequence (looked up): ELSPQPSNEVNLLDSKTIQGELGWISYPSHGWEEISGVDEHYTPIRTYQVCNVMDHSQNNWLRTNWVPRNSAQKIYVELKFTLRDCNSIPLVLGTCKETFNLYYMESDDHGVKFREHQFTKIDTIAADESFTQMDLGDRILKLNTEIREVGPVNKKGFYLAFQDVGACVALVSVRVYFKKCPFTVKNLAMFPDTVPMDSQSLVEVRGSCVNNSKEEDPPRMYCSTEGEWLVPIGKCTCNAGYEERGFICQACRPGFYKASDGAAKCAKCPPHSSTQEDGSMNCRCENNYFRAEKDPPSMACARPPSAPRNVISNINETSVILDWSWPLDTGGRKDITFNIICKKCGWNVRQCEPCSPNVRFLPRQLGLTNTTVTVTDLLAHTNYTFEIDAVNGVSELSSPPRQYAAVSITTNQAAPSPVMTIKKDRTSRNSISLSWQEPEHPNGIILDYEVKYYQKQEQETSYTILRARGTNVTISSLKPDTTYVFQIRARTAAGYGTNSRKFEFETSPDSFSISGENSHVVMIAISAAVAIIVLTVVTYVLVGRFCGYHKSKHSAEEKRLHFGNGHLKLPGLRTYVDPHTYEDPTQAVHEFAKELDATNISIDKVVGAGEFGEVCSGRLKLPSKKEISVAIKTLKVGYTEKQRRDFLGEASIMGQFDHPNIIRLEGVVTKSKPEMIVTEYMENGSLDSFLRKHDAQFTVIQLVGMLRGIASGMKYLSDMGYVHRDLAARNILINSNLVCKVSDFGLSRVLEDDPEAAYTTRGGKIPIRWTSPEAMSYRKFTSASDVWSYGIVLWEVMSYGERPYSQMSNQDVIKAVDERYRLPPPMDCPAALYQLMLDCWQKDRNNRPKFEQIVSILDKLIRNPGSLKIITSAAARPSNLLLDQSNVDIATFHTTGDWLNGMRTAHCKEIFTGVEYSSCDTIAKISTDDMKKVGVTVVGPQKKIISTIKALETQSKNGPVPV
Experimental: 2.5D intensity plot of EphA3, IL-26, and DAPI signals represents the absolute signal intensity of each pixel. Merged views and individual channels were shown. […] These images show EphA3/IL-26 interaction in E0771 cells. 200×. A representative image of five independent experiments showing similar results is shown.
as §1

Binder	EC50 [1]	binding result [2]	binding result [3]
mouse anti-human IL-26 monoclonal antibody clone 69-10 (antibody, V domains shown, Mouse antibody from a hybridoma; also called mouse 69-10; m69-10) VH: QVTLKESGPGILKPSQTLSLTCSFSGFSLSTSGMGVGWIRQPSGKGLEWLAHIWWDDDKYYNPSLKSQLTISKDTSRNQVFLKITSVDTADTATYYCVRGGITATHYYAMDYWGQGTSVTVSS VL: DIQMTQSPASQSASLGESVTISCLASQTIGTWLSWYQQKPGKSPQLLIYAATSLADGVPSRFSGSGSGTKFSFKISSLQAEDFVSYYCQQLYSSPWTFGGGTKLEIK	0.34 µg/mL	–	–
Recombinant human IL-26 dimer (R&D Systems) (ligand, UniProt Q9NPH9 22-171, looked up, Bought from R&D Systems and used for cell stimulation; For the immunofluorescence experiments it was labeled with Alexa Fluor 488 (rhIL-26-Alexa 488); also called exogenous IL-26; rhIL-26-Alexa 488) KHKQSSFTKSCYPRGTLSQAVDALYIKAAWLKATIPEDRIKNIRLLKKKTKKQFMKNCQFQEQLLSFFMEDVFGQLQLQGCKKIRFVEDFHSLRQKLSHCISCASSAREMKSITRMKRIFYRIGNKGIYKAISELDILLSWIKKLLESSQ	–	binds	binds

Source: patent publication US20230398116A1, “Agent for reversing resistance to anticancer drugs” (Y'S AC CO., LTD., priority 2020, published 2023)
